Test results taken from US20150099269, “Hybridization- Independent Labeling Of Repetitive DNA Sequence In Human Chromsomes” (University of Massachusetts, published 2015).

How the values were obtained:
TALE-TelR15 = target: T1, TALE-TelR15 (artificial); test: methanol-fixed, 2N HCl treated cells, room temperature; signal correlates with telomere length (HeLa 1.3 higher than HeLa S3); conditions: tags: fused sfGFP, mTagBFP2, mTFP1, YPet or mCherry (pT7CFE1-His vector)
T1 chain: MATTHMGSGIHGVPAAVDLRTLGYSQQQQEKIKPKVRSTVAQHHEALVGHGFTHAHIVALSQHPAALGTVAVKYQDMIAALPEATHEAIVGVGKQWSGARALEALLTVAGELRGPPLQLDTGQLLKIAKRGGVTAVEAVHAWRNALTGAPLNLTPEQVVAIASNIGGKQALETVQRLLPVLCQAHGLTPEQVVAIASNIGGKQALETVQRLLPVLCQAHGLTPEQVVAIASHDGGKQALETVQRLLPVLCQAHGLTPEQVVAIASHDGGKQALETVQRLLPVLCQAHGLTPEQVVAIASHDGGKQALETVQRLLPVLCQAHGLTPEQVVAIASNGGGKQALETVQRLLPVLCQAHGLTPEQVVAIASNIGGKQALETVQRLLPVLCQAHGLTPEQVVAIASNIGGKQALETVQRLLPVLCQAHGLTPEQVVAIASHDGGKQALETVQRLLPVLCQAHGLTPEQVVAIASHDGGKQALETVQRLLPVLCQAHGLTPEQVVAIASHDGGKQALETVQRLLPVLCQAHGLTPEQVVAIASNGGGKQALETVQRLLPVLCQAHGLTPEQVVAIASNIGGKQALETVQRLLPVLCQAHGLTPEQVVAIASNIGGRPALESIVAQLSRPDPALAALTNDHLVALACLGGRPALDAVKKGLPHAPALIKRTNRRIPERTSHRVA
Description: Cells grown on coverslips were fixed in ice-cold methanol for 10 min at −20° C. All subsequent steps were carried out at room temperature. The fixed cells were incubated with 2N HCl for 5 min and then washed twice with PBS for 5 min each and then incubated with a given TALEColor probe as a 1:10 dilution from the coupled in vitro transcription-translation reactions mixtures for 30 min. The cells were then washed once with PBS for 5 min. Coverslips were mounted in Prolong Antifade (Molecular Probes, Eugene, Oreg.), and images were captured with the fluorescence microscopy system described above.

[1] = target: T2, TALE-TelR15 Green-Lysine labelled, no FP (artificial); test: fixed U2OS cells, compared with the mCherry fusion; conditions: tags: internal lysines labelled with green dye (Promega), pET30a vector
T2 chain: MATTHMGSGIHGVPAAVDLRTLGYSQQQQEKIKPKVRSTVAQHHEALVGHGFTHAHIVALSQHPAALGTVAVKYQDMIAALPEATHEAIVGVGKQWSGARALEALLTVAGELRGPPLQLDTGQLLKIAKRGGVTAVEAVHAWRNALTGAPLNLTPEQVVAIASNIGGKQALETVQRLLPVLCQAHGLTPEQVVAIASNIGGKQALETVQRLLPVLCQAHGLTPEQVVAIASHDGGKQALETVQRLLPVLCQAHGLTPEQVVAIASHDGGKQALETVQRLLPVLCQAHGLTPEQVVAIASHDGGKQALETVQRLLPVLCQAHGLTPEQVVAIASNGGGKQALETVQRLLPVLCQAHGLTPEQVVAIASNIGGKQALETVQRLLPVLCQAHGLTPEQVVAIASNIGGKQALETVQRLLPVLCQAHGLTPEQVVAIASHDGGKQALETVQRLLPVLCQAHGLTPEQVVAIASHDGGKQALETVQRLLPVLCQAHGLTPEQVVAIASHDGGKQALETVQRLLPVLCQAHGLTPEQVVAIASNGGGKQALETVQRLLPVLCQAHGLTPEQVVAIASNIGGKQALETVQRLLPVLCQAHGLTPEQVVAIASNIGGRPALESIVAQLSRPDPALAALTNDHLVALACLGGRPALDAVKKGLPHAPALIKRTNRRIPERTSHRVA

B1: TelR15 target (dsDNA)
DNA 1: TAACCCTAACCCTAA
DNA 2: TTAGGGTTAGGGTTA
binding result (TALE-TelR15): binds | binding result [1]: binds
